Reference: the nanobody polyreactivity screen of Harvey et al. (2022)

Test: yeast display, Sf9 membrane polyspecificity reagent, FACS + sequencing; frameworks hold sequencing errors
How it was run: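 Nanobodies came from a synthetic yeast display library in Saccharomyces cerevisiae BJ5465, induced with galactose for 36–48 hours and stained for 1 hour at 4 °C with 10% biotinylated, detergent-solubilized Sf9 membrane reagent. Cells were enriched on streptavidin microbeads and then FACS-sorted, with low and high (top ~1%) gates set on anti-HA fluorescence for expression and streptavidin fluorescence for reagent binding. Each polyreactivity label reflects the gate a clone came from. Genes were amplified by colony PCR, sequenced by MiSeq 2 × 250 and filtered by CDR length.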

Sequence | polyreactivity (PSR sort gate)
QVQLVESVGGLVQAGGSLLLSCAASGRTFTKYAMGWYRLAPGKEGELVAAISRSGTSTYYADSVKGRFTISRDNEKNTVYLQMNSLKPEDTAVYYCATVSAKYHSVHFGYWGQGTQVTVSS | high polyreactivity
QVQLVESGGGLVQAGGSLRLSCAASGSTFSSYAMGWYRQAPGKERELVAAINWSGGRTYYADSVKGRFTISRDNAKNTVYLQMNSLKPEDTAVYYCAAVGVYTYPYDYWGQGTQVTVSS | high polyreactivity
QVQLVESGGGLVQAGGSLRLSCAASGSIFRNNAMGWYIQAPGKERELVASITRRGGSTYYADSVKGRFTISRDNAKNTVYLQMNSLKPEYTAGSYCAATTQHRYTLNYWGQGTQVTVSS | high polyreactivity
QVQLVESGGGLVQAGGSLRISCAASGFIFGPNAMGWYRQAPGKERELVAAITYSGGSTYYADSVKGRFTISRDNAKNTVYLQMNSLKPEDTAVYYCAADLYTLRYGYRYEYWGQGTQVTVSS | high polyreactivity
QVQLVESGGGLVQAGGSLRLSCAASGITFYGYAMGWYRQAPGKERELVASINSTGSTNYADSVKGRFTISRDNAKNTVYLQMNSLKPDDTAVYYCAARYRDGYRSKRKFGYWGQGTQVTVSS | high polyreactivity
QVQLVESGGGLVQAGGSLRLSCAASGFTFVDYAMGWYRQAPGKERELVATINWDSGSTYADSVKGRFTISRDNAKNTVYLQMNSLKPEDSADYYCAADGDEIEVSFYSWGQGTQVTVSS | low polyreactivity
QVQLVESGGGLVQAGGSLRLICAASGLTFLNNAMGSYRQAPGKERELVAAISDGGSTNYADSVKGRFTISRDNAKNTVYLQMNSLKAEDTAVYYCAAVYTSASSGSWGQGTQVTVSS | low polyreactivity
QVQLVESGGGLVQAGGSLRLSCAASGSTFVANAMGWYRQAPGKERELVAAISGAGGGTYYADSVKGRFTISRDNAKNTVYLQMNSLKPEDTAVYYCAAVPWYYYHYWVSHPYGGDYWGQGTQVTVSS | low polyreactivity
QVQLVESGGGLVQAGGSLRLSCAASGRIFNQYGMGWYRQAPGQEMELVAAIRSGDSTNYADSVKGRFTISRDNAKNTVYLQMNSLKPEVTAVYYCARDRPGDYAGYDYWGQGTEVTVSS | low polyreactivity
QVQLVDSGGGLVQAGGSLSLSCAASGSTFTWYAMGWYIQAPGKERELVAASRWSGGNTYYADSVKGRFTISRDNAKHTVYLQMNSLKPEDPAVYYCAARLYTAADHYNDWGQGTQVTGSS | high polyreactivity
QVQLVESGGGLVQAGGSLRLSCAASGRIFGVYAMGWYRQAPGKERELVASITGSGGRTYYADSVKGRFTISRDNAKNTVYLQMNSLKPEDTAVYYCAAKWGTRLAQQKSYGYWGQGTQVTVSS | high polyreactivity
QVQLVESGGGLVQAGGSLRLSCAASGSILKPYAMRSYRQAPGKERELVAAISGTGGSTYYADSVKGRFTISRDNAKNTVYLQMNSLKPEDTAVYYCNADEFRYAFEYWGQGTQVTVSW | high polyreactivity
QVQLVESGGGLVQAGGSLPLSCAASGFIFYRYTMGWYRQAPGKERELVAAITRNGVSTYYADSVKGRFTISRDNAKNTVYLQMNSLKPEDTAVYYCAAQRYRTGDSWGQGTQVTVSS | high polyreactivity
QVQLVESGGGLVQAGGSLRLSCAASGITFSRNTMGWYRQGPGKERELVAAITYSGGRTYYADSVKGRFTISRDNAKNTVYLQMNSLKPEDTAVYYCARRGTGKYPYYQHYYWGQGTQVTVSS | high polyreactivity
QVQLVESGGGLVQAGGSLRLSCAASGSTFGSYAMGWYRQAPGKERELVAAISRGGGSTYYADSVKGRFTISRDNAKNTVYLQMKSLKPEDTAVYYCAASFSRYGLVLYSIEDYWGQGTQVTVSS | high polyreactivity
QVQLVESGGGLVQAGGSLRLSCAASGRTFHRYAMGWYRQAPGKERELVATISRGGSTNYADSVKGRFTISRDNAQTTVYLQRNSLKTEETAVYYCAREYYGSWDSGGGGYWGQGTQVTVAS | high polyreactivity

Sequence | polyreactivity (PSR sort gate)
QVQLVESGGGLVQAGGSLRLSCAASGFIFQYNAMGWYRQAPGKERELVAAITSRGGSTYYADSVKGRFTISRDNAKNTVFLQMNSLKPEDTAVYYCATRRSYLADYWGQGTQVTVSS | high polyreactivity
QVQLVESGGGLVQAGGSLRLSCAASGSIFNKYAMGWYRQAPGKERELVAAISVSGTRTYYADTVKGRFTISRDNAKNTVYLQMNSLKPEDTAVYYCATKFFRTAYESWGQGTQVTVSS | high polyreactivity
QVQLVESGGGLVQAGGSRRLSCADSGSIFDQYTMGWSRQAPGKEWELVAGISSGGITNYADSVKGRFTLSRDNAKNTVYLQMTSLKPEDTAVYYCPADNWDLAEYDYWGQGPQVTVSS | low polyreactivity
QVQLVESGGGLVQAGGSLRLSCAASGRIFRSYAMGWYRQAPGKERELVAAITKSGGGTYYADTVKGRFTISRDNAKNTVYLQMNSMKPEDTAVYYCGARGHCGYYYWGQGTQVTVSS | high polyreactivity
QVQLVESGGGLVQAGGSLRLSCAASGRIFVFYAMGWYRQAPGKERELVAAITASSTRTYYADSVKGRFTISRDNAKNTFYLQMNSLKPEDTAVYYCAADRYYWGQGTQVTVSS | low polyreactivity
QVQLVESGGGLVQAGGSLRLSCAASGFTFAVYAMGWYRQAPGKERELVAAISDSGGSTYYADSVKGRFTISRDNAKNTVYLQMNSLKPEDTAVYYCNRDWIVSGYYAYYEFDYWGQGTQVTVSS | low polyreactivity
QVQLVESGGGLVQAGGSLRLSCAASGSTFSPNDMGWYRQAPGKERELVADNSNYADSVKGRFTISRDNAKNTVYLQMNSLKPEDTAVYYCAAEWRGDRYRLYVVSWWYDYWGQGTQVTVSS | low polyreactivity
QVQLVESGGGLVQAGGSLRLSCAASGFTFSYYAMGWYRQAPGKERELVAAISWSGGRTYYADSVKGRFTISRDNAKNTVYLQMNSLKPEDTAVYYCAVVYYGSIFVLEYDYWGQGTQVTVSS | high polyreactivity
QVQLVETGGGLVQAGGSLRLSCAASGYIFGYVMGWYRQAPGKERELVAAITYSSGNTYYADSVKGRFTISRDNAKNTVYLQMNSLKPEDTAVYYCAKQAYYKGRLAYGYWGQGTQVTVSS | high polyreactivity
QVQLVESGGGLVQAGGSLRLICAASGRIFYFYAMGWYRQAPGKERELVAAISTSGGSTYYADSVKGRFTISRDNAKNTVYLQMNSLKPEDTAVYYCAARFRYYGSEYDYWGQGTQVTVSS | low polyreactivity
QVQLVESGGRLVQAGGSLRLRGAASGNTNIPNAMGWYRQAPGKERELLAAIRASGGSTYYADSVKGRFTISRDNAKNTVYFQLNSLKTEDTSVYYCNADIWYKTYDYWGQGTQVTVSS | low polyreactivity
QVQLVESGGGLVQAGGSLRLSCAASGITFFIYAMGWYRQAPGKQRELFAAIRSGGSTNYADSVKGRFTISRDNAQNTVYLQMNSLKPEDTSVFYCAADVYGTVRRVGWYYVGEGYDYWGQGTQVTVSS | low polyreactivity
QVQLVESGGGLVQAGGSLRLSCAASGSTFLYYAMGWYRPAPGKEREFVASISGSGGSTNYADSVKGRFTISRDNAKTTVYLQLNSLKPEDTAVYYCAAGYGGWAWNHVSYGGDYWGQGTQVTVSS | low polyreactivity
QVQLVETGGGLVQAGGSLRLSCAASGRTFGNYAMGWYRQAPGKERELVAAITSAGRTYYADSVKGRFTISRDNAKNTVYLQMNSLKPEDTAVYYCAVSVIYWSGSQVSVEYYYWGQGTQVTVSS | low polyreactivity
QVQLVESGGGLVQAGGSLRLSCAASGRIFYGNVMGWYRQAPGKERELVAAITRSGGSTYYADSVKGRFTISRDYAKNTVYLQMNSLKPEDTAVYYSNDALVSRDRSYEYWGQGTQVTVSS | high polyreactivity
QVQLVESGGGLGQAGGSLRLSCAASGRTFYIYAMGWYRQAPGKERELVAANTWSTGGTYYADSVKGRFTISRDNAKNTVYLQMNSLKPEDTAVYYCAAGYDYKSTRHYYWGQGTQVTVSS | high polyreactivity
